Laboratory results: the supplement of paper PMC10567573

B1: TMEM106C (parent)
chain: FTGRDSITCLTCQGTGYIPTEQVN
B2: INTS3 (parent)
chain: YPPLEGHVRQGVFSSLNHIVEKRV

Variants of: B1
Test: protein stability index of a GFP-peptide fusion (GPS, HEK-293T) (PSI 1-6); higher = more stable
Settings: c terminus: a fixed tail appended
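Further: lentivirally expressed fusions sorted by FACS into six bins by GFP to DsRed ratio, PSI derived from sequencing read proportions per bin multiplied by bin number.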

Protein stability index of substitutions, site by site:
P19: W 2.29 | Y 1.78
T20: A 2.11 | C 1.83 | D 2.56 | E 1.66 | F 1.89 | G 1.45 | H 1.92 | I 1.99 | K 1.92 | L 2.19 | M 1.93 | N 1.8 | P 1.74 | Q 2.65 | R 2.27 | S 2.07 | V 2.23 | W 1.71 | Y 2.17
E21: A 1.79 | C 3.11 | D 1.82 | F 1.22 | G 1.76 | H 1.79 | I 2.16 | K 1.65 | L 2.03 | M 1.75 | N 2.39 | P 2.2 | Q 1.94 | R 2.03 | S 1.94 | T 2.08 | V 2.59 | W 1.84 | Y 2.67
Q22: A 2.07 | C 2 | D 1.86 | E 1.73 | F 1.85 | G 2.84 | H 1.47 | I 1.95 | K 1.85 | L 2.52 | M 2.42 | N 2.26 | P 1.73 | R 2.13 | S 1.79 | T 2.2 | V 2.16 | W 1.88 | Y 1.9
V23: A 2.21 | C 2.25 | D 1.54 | E 1.79 | F 1.73 | G 1.75 | H 2.11 | I 1.47 | K 2.3 | L 1.7 | M 1.88 | N 2.12 | P 1.89 | Q 1.72 | R 2.13 | S 1.51 | T 2.09 | W 1.87 | Y 1.79
N24: A 1.89 | C 2.25 | D 2.21 | E 2.47 | F 1.92 | G 2.29 | H 2.07 | I 1.44 | K 2.33 | L 1.91 | M 1.84 | P 1.76 | Q 1.96 | R 2.37 | S 2.27 | T 2 | V 2.24 | W 3.36 | Y 2.11

Variants of: B2
Test: as above
Settings: c terminus: a fixed tail appended

Protein stability index of substitutions, site by site:
H18: N 2.78 | T 2.16 | S 2.65 | E 2.91 | C 2.01 | W 1.39 | Y 1.83 | Q 2.76 | P 3.04
I19: Q 2.52 | L 1.83 | V 2.52 | A 3.17 | S 2.53 | W 3.41 | K 2.37 | M 3.33 | T 2.88 | P 2.47 | G 2.57 | R 3.04 | Y 2.07 | D 3.11
E5: P 2.14 | D 3.54 | M 2.24 | L 2.14 | I 1.73 | Y 1.87 | N 2.05 | Q 2.02
L4: F 3.06 | Y 1.83 | I 2.74 | Q 2.74 | A 2.7 | G 1.35 | R 2.32 | T 1.79 | C 2.21 | V 3.04 | S 2.58 | H 3.01 | E 1.08 | W 2.91
G11: I 1.87 | H 2.29 | M 1.79 | V 2.33 | W 1.34 | T 2.27 | R 2.18 | N 2.29 | K 2.93 | D 2.59
E21: M 2.75 | C 2.23 | F 2.72 | Q 1.79 | A 2.23 | Y 2.23 | I 1.74 | T 2.54 | V 2.48 | K 2.26 | G 2.68 | W 1.95 | R 2.45
V8: C 2.86 | G 2.19 | I 2.38 | P 2.31 | Y 2.21 | T 3 | N 2.55 | K 2.84 | D 3.25
S15: M 2.43 | Q 2.28 | N 2.4 | E 2.17 | L 1.86 | Y 1.33 | F 2.32 | R 2.12 | G 2.58
K22: S 2.09 | R 2.75 | T 2.23 | D 2.2 | H 2.65 | F 3.12 | E 2.63 | C 1.43 | M 1.73
R23: Q 2.83 | K 2.7 | N 2.6 | L 1.98 | V 1.85 | Y 2.48 | M 1.7 | E 2.68 | G 2.2 | H 2.4
V24: F 1.99 | L 2.78 | C 2.01 | H 2.29 | A 3.31 | W 2.68
V20: K 2.43 | Y 2.27 | P 2.64 | T 2.48 | L 2.2 | H 2.36 | N 2.34 | R 2.9 | S 2.29 | Q 2.72 | W 2.02
P2: L 2.7 | T 1.6 | A 2.18 | E 3.54 | I 1.55 | R 3.48 | S 1.97 | N 1.82 | Y 2.6 | D 3.36 | H 1.82 | G 2.85 | M 2.1 | K 2.49
G6: V 2.07 | F 2.2 | H 2.98 | R 2.3 | E 3.51 | N 2.86 | D 2.81 | C 2.39 | L 2.06 | I 1.76
N17: E 2.63 | Q 2.34 | K 2.28 | C 1.86 | D 3.07 | M 1.64 | P 2.4
F13: E 3.99 | V 3.7 | R 3.32 | D 4.31 | G 3.33 | K 3.16 | W 2.4 | Y 2.84 | C 2.98
Y1: R 4.09 | S 3.78 | E 3.96 | P 3.94 | N 4.12 | L 3.53 | G 3.43 | D 3.85
Q10: Y 1.99 | I 1.62 | P 2.3 | H 2.69 | G 2.82 | V 2.28 | R 2.26 | D 3.18 | A 2.19 | C 2.73 | L 1.72
L16: V 3.1 | E 3.65 | G 3.18 | Q 3.01 | I 2.31 | S 2.49 | K 3.35
S14: P 2.22 | C 1.5 | L 1.73 | D 3.52 | H 2.63 | N 2.41 | E 2.73 | T 2.56 | Y 1.66
P3: Y 2.08 | A 2.43 | S 3.19 | F 2.29 | H 2.9 | W 1.49 | E 2.86 | N 2.04 | C 2.78 | D 3.11 | Q 2.87 | R 2.63
V12: C 2.21 | H 2.53 | E 3.46 | S 2.11 | P 3.19 | I 2.37 | Y 2.54 | Q 3.95 | G 2.54 | D 3.44 | R 3.5 | F 2.69
R9: T 2.13 | W 1.72 | F 2.09 | M 2.47 | N 2.75 | I 1.38 | A 3.24 | H 2.96 | V 3.14
H7: Y 1.47 | D 2.79 | N 3.13 | I 2.21 | K 2.21 | A 2.68 | V 2.37
